B1: H02L01-PBD (conjugate)
heavy: EVQLVESGGGLVQPGGSLRLSCAASGFTFRDYYMAWVRQAPGKGLEWVSSIGFDESRTYYADSVKGRFTISRDDSKNTLYLQMNSLRAEDTAVYYCARHGVSYYSGDNWFAYWGQGTLVTVSSASTKGPSVFPLAPSSKSTSGGTAALGCLVKDYFPEPVTVSWNSGALTSGVHTFPAVLQSSGLYSLSSVVTVPSSSLGTQTYICNVNHKPSNTKVDKKVEPKSCDKTHTCPPCPAPEAAGGPSVFLFPPKPKDTLMISRTPEVTCVVVDVSHEDPEVKFNWYVDGVEVHNAKTKPREEQYNSTYRVVSVLTVLHQDWLNGKEYKCKVSNKALAAPIEKTISKAKGQPREPQVYTLPPSREEMTKNQVSLTCLVKGFYPSDIAVEWESNGQPENNYKTTPPVLDSDGSFFLYSKLTVDKSRWQQGNVFSCSVMHEALHNHYTQKSLSLSPGK
light: DIQMTQSPSSLSASVGDRVTITCKSSQGLLYSGDQKNYLAWYQQKPGKAPKLLIYWASTRQSGVPSRFSGSGSGTDFTLTISSLQPEDFATYYCQQYYDPPYTFGQGTKVEIKRTVAAPSVFIFPPSDEQLKSGTASVVCLLNNFYPREAKVQWKVDNALQSGNSQESVTEQDSKDSTYSLSSTLTLSKADYEKHKVYACEVTHQGLSSPVTKSFNRGEC
B2: H02L01-V2-PBD (conjugate)
heavy: EVQLVESGGGLVQPGGSLRLSCAASGFTFRDYYMAWVRQAPGKGLEWVSSIGFDESRTYYADSVKGRFTISRDDSKNTLYLQMNSLRAEDTAVYYCARHGVSRYSGDNWFAYWGQGTLVTVSSASTKGPSVFPLAPSSKSTSGGTAALGCLVKDYFPEPVTVSWNSGALTSGVHTFPAVLQSSGLYSLSSVVTVPSSSLGTQTYICNVNHKPSNTKVDKKVEPKSCDKTHTCPPCPAPEAAGGPSVFLFPPKPKDTLMISRTPEVTCVVVDVSHEDPEVKFNWYVDGVEVHNAKTKPREEQYNSTYRVVSVLTVLHQDWLNGKEYKCKVSNKALAAPIEKTISKAKGQPREPQVYTLPPSREEMTKNQVSLTCLVKGFYPSDIAVEWESNGQPENNYKTTPPVLDSDGSFFLYSKLTVDKSRWQQGNVFSCSVMHEALHNHYTQKSLSLSPGK
light: DIQMTQSPSSLSASVGDRVTITCKSSQGLLYSGDQKNYLAWYQQKPGKAPKLLIYWASTRQSGVPSRFSGSGSGTDFTLTISSLQPEDFATYYCQQYYDPPYTFGQGTKVEIKRTVAAPSVFIFPPSDEQLKSGTASVVCLLNNFYPREAKVQWKVDNALQSGNSQESVTEQDSKDSTYSLSSTLTLSKADYEKHKVYACEVTHQGLSSPVTKSFNRGEC
B3: H02L01-V1-PBD (conjugate)
heavy: EVQLVESGGGLVQPGGSLRLSCAASGFTFRDYYMAWVRQAPGKGLEWVSSIGFDESRTYYADSVKGRFTISRDDSKNTLYLQMNSLRAEDTAVYYCARHGVSKYSGDNWFAYWGQGTLVTVSSASTKGPSVFPLAPSSKSTSGGTAALGCLVKDYFPEPVTVSWNSGALTSGVHTFPAVLQSSGLYSLSSVVTVPSSSLGTQTYICNVNHKPSNTKVDKKVEPKSCDKTHTCPPCPAPEAAGGPSVFLFPPKPKDTLMISRTPEVTCVVVDVSHEDPEVKFNWYVDGVEVHNAKTKPREEQYNSTYRVVSVLTVLHQDWLNGKEYKCKVSNKALAAPIEKTISKAKGQPREPQVYTLPPSREEMTKNQVSLTCLVKGFYPSDIAVEWESNGQPENNYKTTPPVLDSDGSFFLYSKLTVDKSRWQQGNVFSCSVMHEALHNHYTQKSLSLSPGK
light: DIQMTQSPSSLSASVGDRVTITCKSSQGLLYSGDQKNYLAWYQQKPGKAPKLLIYWASTRQSGVPSRFSGSGSGTDFTLTISSLQPEDFATYYCQQYYDPPYTFGQGTKVEIKRTVAAPSVFIFPPSDEQLKSGTASVVCLLNNFYPREAKVQWKVDNALQSGNSQESVTEQDSKDSTYSLSSTLTLSKADYEKHKVYACEVTHQGLSSPVTKSFNRGEC

System: LRRC15-negative human lung carcinoma cell line EBC-1
Test: In vivo antitumor effect, EBC-1 subcutaneous transplant model
Conditions: tail vein, on Day 9, female SCID mice
Procedure: The antitumor effects of the antibody-drug conjugates were evaluated by using animal models in which cells of the human tumor cell line had been transplanted into immunodeficient mice. 4 to 6 Week-old SCID mice (CB17/Icr-Prkdc[scid]/CrlCrlj, Jackson Laboratory Japan, Inc.) were habituated for 3 days or more under SPF conditions before experimental use. The mice were fed with sterilized solid feed (FR-2, Funabashi Farms Co., Ltd.) and given sterilized tap water (prepared by adding a solution of 5 to 15 ppm sodium hypochlorite). The major and minor diameters of the transplanted tumors were measured twice a week with an electronic digital caliper ([…] Corporation), and the estimated tumor volume was calculated using the following formula. Estimated tumor volume (mm^3) = 1/2 × major diameter (mm) × [minor diameter (mm)]^2 All antibody-drug conjugates were diluted with ABS and administered into the tail vein at doses shown in each Example. In addition, ABS (vehicle) or control hIgG-PBD prepared in Reference Example 4 was administered as the control group, in a similar manner. 5 to 6 Mice were used per group in the experiment. LRRC15-negative human lung carcinoma cell line EBC-1 (JCRB) was suspended in PBS mixed with 50% Matrigel (Corning Incorporated), 1.0 × 10^6 cells were subcutaneously transplanted into the right flank of female SCID mice (Day 0), and random grouping was performed on Day 9. From publicly known information, it is known that in this tumor model, carcinoma cells are LRRC15 negative, and cells in the tumor stroma are LRRC15 positive (International Publication No. 2017/095805). On the day of grouping, a vehicle, the antibody-drug conjugate […]-PBD, […]-V1-PBD, or […]-V2-PBD prepared in Example 5 was administered into the tail vein at a dose of 0.4 mg or 0.2 mg/kg. The abscissa indicates the number of days, and the ordinate indicates estimated tumor volume, and the error bars indicate SEM values. […] The antitumor effects of the antibody-drug conjugates were evaluated by using animal models in which cells of a human tumor cell line had been transplanted into immunodeficient mice, or cells of a mouse tumor cell line had been transplanted into immunocompetent mice. 4 to 6 Week-old SCID mice (CB17/Icr-Prkdc[scid]/CrlCrlj, Jackson Laboratory Japan, Inc.), NSG mice (NOD.Cg-Prkdcscid Il2rgtm1Wjl/SzJ, Jackson Laboratory Japan, Inc.), or B6J mice (C57BL/6J, Jackson Laboratory Japan, Inc.) were habituated for 3 days or more under SPF conditions before experimental use. The mice were fed with sterilized solid feed and given sterilized tap water. The major and minor diameters of the transplanted tumors were measured twice a week with an electronic digital caliper (Mitutoyo Corporation), and the estimated tumor volume was calculated using the following formula. […]

Row | Molecule | antitumor effect (estimated tumor volume) (0.4 mg or 0.2 mg/kg) | antitumor effect (estimated tumor volume) (0.3 mg/kg, huM25-PBD at the same dose)
1 | B1 | antitumor activity higher than that of the vehicle group | 
2 | B2 | antitumor activity higher than that of the vehicle group | 
3 | B3 | antitumor activity higher than that of the vehicle group | antitumor activity higher than that of the vehicle and huM25-PBD
